# From patent US20250025567A1 (Astellas, published 2025)
# Substitutions are numbered along the chain they refer to.
# B1: humanized anti-CLDN6 antibody Ab1 (antibody, human IgG1, kappa, V domains shown)
# VH: QVQLVESGGGVVQPGGSLRLSCKASGYSFTGYTMNWVRQAPGKGLEWVGLINPYNGGTIYNQKFKGRFTLSVDKSKSTAYLQMNSLRAEDTAVYYCARDYGFVLDYWGRGTLVTVSS
# VL: DIQLTQSPSSLSASVGDRVTITCSASSSVSYLHWFQQKPGKAPKLLVYSTSNLPSGVPSRFSGSGSGTDYTLTISSLQPEDFATYYCQQRSIYPPWTFGQGTKLEIKR
# notes: Humanized from mouse anti-CLDN6 antibody GT512muMAB 64A or 61D (WO 2011/057788), expressed in ExpiCHO-S cells; Tested as the naked antibody
# B2: humanized anti-CLDN6 antibody Ab2 (antibody, human IgG1, kappa, V domains shown)
# VH: B1 VH with F102Y
# VL: B1 VL
# notes: Tested as the naked antibody
# Molecular target: T1, human CLDN6 (Claudin 6) (human, UniProt P56747 1-220)
# T1 construct: whole, on cells; Target presented on NUGC-3 cells that express CLDN6; also called hCLDN6
# T1 sequence (looked up): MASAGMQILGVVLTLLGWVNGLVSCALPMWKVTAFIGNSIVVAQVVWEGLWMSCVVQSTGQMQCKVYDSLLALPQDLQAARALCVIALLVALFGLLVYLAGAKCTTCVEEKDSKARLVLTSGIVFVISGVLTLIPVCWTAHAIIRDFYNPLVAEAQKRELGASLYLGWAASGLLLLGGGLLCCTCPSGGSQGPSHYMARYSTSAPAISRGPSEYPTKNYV
# Assay: flow cytometry on NUGC-3 cells expressing CLDN6, antibody 1 ng/mL to 25 µg/mL, PE anti-human IgG detection, gMFI
# Procedure: The cells of human gastric cancer cell line NUGC-3 (JCRB cell bank) expressing CLDN6 were suspended with PBS (Wako, #045-29795) containing 5% FBS so as to have a concentration of 1×10⁶ cells/mL. The suspension was seeded (added) in the wells of a 96-well V-bottom microplate at a rate of 100 μL/well. After centrifugation, the supernatant was removed. AbM: antibody comprising a heavy chain, aCLDN6-VH—CH₁—CH₂—CH₃ and a light chain, aCLDN6-VL-CL, disclosed in International Publication No. WO2022/058298. Ab0, Ab1 and Ab2 were suspended with 5% FBS-containing PBS such that the concentrations fall in the range of 1 ng/mL to 25 μg/mL (12 dilution series were prepared by serial dilution at a 2.5-fold dilution rate from 25 μg/mL to 1 ng/mL). The suspensions were added at a rate of 100 μL/well and allowed to stand still at 4° C. for one hour. […] A histogram of PE (phycoerythrin) fluorescence intensity of viable cell fractions was prepared and geometric mean fluorescence intensity (gMFI) was calculated. gMFI values were plotted to make a graph by GraphPad Prism (company: GraphPad Software). […]
binder,measurement,value
B1,binding result,binds
B2,binding result,binds
